{
  "source": "paper PMC5672800",
  "about": "(Journal of medicinal chemistry, 2017)",
  "binders": {"B1": {"name": "Ac-His-Arg-(pI)DPhe-Tic-NH2 (peptide)", "chain": "HRFX", "HELM": "PEPTIDE1{[ac].H.R.[O=C([C@@H](Cc1ccc(I)cc1)N[*:1])[*:2]].[Tic].[am]}$$$$V2.0", "SMILES": "CC(=O)N[C@@H](Cc1c[nH]cn1)C(=O)N[C@@H](CCCNC(=N)N)C(=O)N[C@H](Cc1ccc(I)cc1)C(=O)N1Cc2ccccc2C[C@H]1C(N)=O"}, "B2": {"name": "Ac-Arg-Arg-(pI)DPhe-Tic-NH2 (peptide)", "chain": "RRFX", "HELM": "PEPTIDE1{[ac].R.R.[O=C([C@@H](Cc1ccc(I)cc1)N[*:1])[*:2]].[Tic].[am]}$$$$V2.0", "SMILES": "CC(=O)N[C@@H](CCCNC(=N)N)C(=O)N[C@@H](CCCNC(=N)N)C(=O)N[C@H](Cc1ccc(I)cc1)C(=O)N1Cc2ccccc2C[C@H]1C(N)=O"}, "B3": {"name": "compound 25 (peptide)", "peptide": "RRFF", "HELM": "PEPTIDE1{[ac].R.R.[O=C([C@@H](Cc1ccc(I)cc1)N[*:1])[*:2]].F.[am]}$$$$V2.0", "SMILES": "CC(=O)N[C@@H](CCCNC(=N)N)C(=O)N[C@@H](CCCNC(=N)N)C(=O)N[C@H](Cc1ccc(I)cc1)C(=O)N[C@@H](Cc1ccccc1)C(N)=O"}},
  "note": "Non-standard residues stand in square brackets, D forms with d. dPhe(4-I) = N[C@H](Cc1ccc(I)cc1)C(=O)O; d2Nal = N[C@H](Cc1ccc2ccccc2c1)C(=O)O; Bta = N[C@@H](Cc1csc2ccccc12)C(=O)O; Tic = O=C(O)[C@@H]1Cc2ccccc2CN1",
  "data": [
    {"biological_target": "T1, mouse melanocortin-3 receptor (mouse, UniProt P33033 1-323)", "T1 sequence (P33033 whole entry)": "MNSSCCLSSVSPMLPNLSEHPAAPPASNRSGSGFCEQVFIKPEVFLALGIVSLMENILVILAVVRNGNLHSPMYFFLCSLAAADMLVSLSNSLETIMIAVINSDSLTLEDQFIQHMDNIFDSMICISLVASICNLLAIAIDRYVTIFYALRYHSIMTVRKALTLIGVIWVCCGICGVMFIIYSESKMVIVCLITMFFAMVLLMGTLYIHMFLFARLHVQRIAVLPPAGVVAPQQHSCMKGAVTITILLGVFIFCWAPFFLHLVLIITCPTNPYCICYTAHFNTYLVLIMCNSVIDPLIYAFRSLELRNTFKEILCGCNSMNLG", "assay": "cell-based or functional assay", "units": {"cAMP AlphaScreen, HEK293 cells stably expressing the receptor: agonist EC50": "nM"}, "values": [
      {"binder": "Ac-HR[dPhe(4-I)][Bta]-NH2", "note": "[compound 11]", "cAMP AlphaScreen, HEK293 cells stably expressing the receptor: agonist EC50": 460},
      {"binder": "Ac-RR[dPhe(4-I)][Bta]-NH2", "note": "[compound 10]", "cAMP AlphaScreen, HEK293 cells stably expressing the receptor: agonist EC50": 160},
      {"binder": "B1", "cAMP AlphaScreen, HEK293 cells stably expressing the receptor: agonist EC50": 40},
      {"binder": "Ac-FR[dPhe(4-I)][Tic]-NH2", "note": "[compound 22]", "cAMP AlphaScreen, HEK293 cells stably expressing the receptor: agonist EC50": 610},
      {"binder": "Ac-[d2Nal]R[dPhe(4-I)][Tic]-NH2", "note": "[compound 24]", "cAMP AlphaScreen, HEK293 cells stably expressing the receptor: agonist EC50": 600},
      {"binder": "Ac-FR[dPhe(4-I)][Bta]-NH2", "note": "[compound 15]", "cAMP AlphaScreen, HEK293 cells stably expressing the receptor: agonist EC50": 930},
      {"binder": "Ac-RR[dPhe(4-I)][d2Nal]-NH2", "note": "[Ac-Arg-Arg-(pI)DPhe-DNal(2′)-NH2]", "cAMP AlphaScreen, HEK293 cells stably expressing the receptor: agonist EC50": 57}
    ]},
    {"biological_target": "T2, mouse melanocortin-4 receptor (mouse, UniProt P56450 1-332)", "T2 sequence (P56450 whole entry)": "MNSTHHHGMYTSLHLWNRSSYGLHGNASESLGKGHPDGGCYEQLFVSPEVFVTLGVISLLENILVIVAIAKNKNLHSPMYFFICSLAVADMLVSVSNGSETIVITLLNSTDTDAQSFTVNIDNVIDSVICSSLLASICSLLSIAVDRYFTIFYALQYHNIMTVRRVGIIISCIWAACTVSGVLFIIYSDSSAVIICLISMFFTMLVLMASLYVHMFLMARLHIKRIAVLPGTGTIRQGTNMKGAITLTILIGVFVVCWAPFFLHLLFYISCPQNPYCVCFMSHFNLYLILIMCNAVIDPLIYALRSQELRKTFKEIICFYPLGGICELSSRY", "assay": "cell-based or functional assay", "units": {"cAMP AlphaScreen, HEK293 cells stably expressing the receptor: agonist EC50": "nM"}, "values": [
      {"binder": "Ac-HR[dPhe(4-I)][Bta]-NH2", "note": "[compound 11]", "cAMP AlphaScreen, Schild analysis against NDP-MSH (blocks m5+m3): antagonist pA2": "6.4 -Log(Ki)"},
      {"binder": "Ac-RR[dPhe(4-I)][Bta]-NH2", "note": "[compound 10]", "cAMP AlphaScreen, Schild analysis against NDP-MSH (blocks m5+m3): antagonist pA2": "6.6 -Log(Ki)"},
      {"binder": "B1", "cAMP AlphaScreen, HEK293 cells stably expressing the receptor: agonist EC50": "> 100000", "cAMP AlphaScreen, Schild analysis against NDP-MSH (blocks m5+m3): antagonist pA2": "7 -Log(Ki)"},
      {"binder": "Ac-FR[dPhe(4-I)][Tic]-NH2", "note": "[compound 22]", "cAMP AlphaScreen, HEK293 cells stably expressing the receptor: agonist EC50": "> 100000", "cAMP AlphaScreen, Schild analysis against NDP-MSH (blocks m5+m3): antagonist pA2": "6.3 -Log(Ki)"},
      {"binder": "B2", "cAMP AlphaScreen, HEK293 cells stably expressing the receptor: agonist EC50": "> 100000", "cAMP AlphaScreen, Schild analysis against NDP-MSH (blocks m5+m3): antagonist pA2": "7.8 -Log(Ki)"},
      {"binder": "Ac-[d2Nal]R[dPhe(4-I)][Tic]-NH2", "note": "[compound 24]", "cAMP AlphaScreen, Schild analysis against NDP-MSH (blocks m5+m3): antagonist pA2": "6.4 -Log(Ki)"},
      {"binder": "Ac-FR[dPhe(4-I)][Bta]-NH2", "note": "[compound 15]", "cAMP AlphaScreen, HEK293 cells stably expressing the receptor: agonist EC50": "> 100000", "cAMP AlphaScreen, Schild analysis against NDP-MSH (blocks m5+m3): antagonist pA2": "5.7 -Log(Ki)"},
      {"binder": "Ac-RR[dPhe(4-I)][d2Nal]-NH2", "note": "[Ac-Arg-Arg-(pI)DPhe-DNal(2′)-NH2]", "cAMP AlphaScreen, HEK293 cells stably expressing the receptor: agonist EC50": "> 100000", "cAMP AlphaScreen, Schild analysis against NDP-MSH (blocks m5+m3): antagonist pA2": "6.4 -Log(Ki)"}
    ]},
    {"biological_target": "mouse melanocortin-1 receptor (mouse, UniProt Q01727 1-315)", "sequence (Q01727 whole entry)": "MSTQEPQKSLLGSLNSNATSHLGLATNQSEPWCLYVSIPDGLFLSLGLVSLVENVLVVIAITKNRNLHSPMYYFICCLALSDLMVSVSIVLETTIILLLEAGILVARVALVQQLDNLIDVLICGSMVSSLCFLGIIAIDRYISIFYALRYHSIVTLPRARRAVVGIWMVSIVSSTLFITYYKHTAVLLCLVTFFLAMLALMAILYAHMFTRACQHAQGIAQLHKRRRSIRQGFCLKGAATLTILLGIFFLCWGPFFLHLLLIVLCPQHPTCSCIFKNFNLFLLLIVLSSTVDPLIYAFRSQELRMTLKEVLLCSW", "assay": "cell-based or functional assay", "units": {"cAMP AlphaScreen, HEK293 cells stably expressing the receptor: agonist EC50": "nM"}, "values": [
      {"binder": "Ac-HR[dPhe(4-I)][Bta]-NH2", "note": "[compound 11]", "cAMP AlphaScreen, HEK293 cells stably expressing the receptor: agonist EC50": 70},
      {"binder": "Ac-RR[dPhe(4-I)][Bta]-NH2", "note": "[compound 10]", "cAMP AlphaScreen, HEK293 cells stably expressing the receptor: agonist EC50": 56},
      {"binder": "B1", "cAMP AlphaScreen, HEK293 cells stably expressing the receptor: agonist EC50": 0.71},
      {"binder": "Ac-FR[dPhe(4-I)][Tic]-NH2", "note": "[compound 22]", "cAMP AlphaScreen, HEK293 cells stably expressing the receptor: agonist EC50": 8},
      {"binder": "B2", "cAMP AlphaScreen, HEK293 cells stably expressing the receptor: agonist EC50": 0.51},
      {"binder": "B3", "cAMP AlphaScreen, HEK293 cells stably expressing the receptor: agonist EC50": 55},
      {"binder": "Ac-[d2Nal]R[dPhe(4-I)][Tic]-NH2", "note": "[compound 24]", "cAMP AlphaScreen, HEK293 cells stably expressing the receptor: agonist EC50": 7},
      {"binder": "Ac-FR[dPhe(4-I)][Bta]-NH2", "note": "[compound 15]", "cAMP AlphaScreen, HEK293 cells stably expressing the receptor: agonist EC50": 330},
      {"binder": "Ac-RR[dPhe(4-I)][d2Nal]-NH2", "note": "[Ac-Arg-Arg-(pI)DPhe-DNal(2′)-NH2]", "cAMP AlphaScreen, HEK293 cells stably expressing the receptor: agonist EC50": 280}
    ]},
    {"biological_target": "mouse melanocortin-5 receptor (mouse, UniProt P41149 1-325)", "sequence (P41149 whole entry)": "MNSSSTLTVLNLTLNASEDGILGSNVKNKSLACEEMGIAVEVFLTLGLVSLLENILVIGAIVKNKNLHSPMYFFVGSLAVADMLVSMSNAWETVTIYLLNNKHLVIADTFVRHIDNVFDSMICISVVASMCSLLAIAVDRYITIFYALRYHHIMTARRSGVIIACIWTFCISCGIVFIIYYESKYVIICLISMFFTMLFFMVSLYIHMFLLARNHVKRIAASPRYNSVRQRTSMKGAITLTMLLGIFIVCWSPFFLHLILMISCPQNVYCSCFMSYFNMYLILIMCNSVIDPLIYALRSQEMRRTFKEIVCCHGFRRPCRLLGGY", "assay": "cell-based or functional assay", "units": {"cAMP AlphaScreen, HEK293 cells stably expressing the receptor: agonist EC50": "nM"}, "values": [
      {"binder": "Ac-HR[dPhe(4-I)][Bta]-NH2", "note": "[compound 11]", "cAMP AlphaScreen, HEK293 cells stably expressing the receptor: agonist EC50": 270},
      {"binder": "Ac-H[dF]RW-NH2", "note": "[Ac-His-DPhe-Arg-Trp-NH2]", "cAMP AlphaScreen, HEK293 cells stably expressing the receptor: agonist EC50": 3},
      {"binder": "Ac-RR[dPhe(4-I)][Bta]-NH2", "note": "[compound 10]", "cAMP AlphaScreen, HEK293 cells stably expressing the receptor: agonist EC50": 210},
      {"binder": "B1", "cAMP AlphaScreen, HEK293 cells stably expressing the receptor: agonist EC50": 17},
      {"binder": "Ac-FR[dPhe(4-I)][Tic]-NH2", "note": "[compound 22]", "cAMP AlphaScreen, HEK293 cells stably expressing the receptor: agonist EC50": 200},
      {"binder": "B2", "cAMP AlphaScreen, HEK293 cells stably expressing the receptor: agonist EC50": 8.8},
      {"binder": "B3", "cAMP AlphaScreen, HEK293 cells stably expressing the receptor: agonist EC50": 340},
      {"binder": "Ac-[d2Nal]R[dPhe(4-I)][Tic]-NH2", "note": "[compound 24]", "cAMP AlphaScreen, HEK293 cells stably expressing the receptor: agonist EC50": 250},
      {"binder": "Ac-FR[dPhe(4-I)][Bta]-NH2", "note": "[compound 15]", "cAMP AlphaScreen, HEK293 cells stably expressing the receptor: agonist EC50": 1300},
      {"binder": "Ac-RR[dPhe(4-I)][d2Nal]-NH2", "note": "[Ac-Arg-Arg-(pI)DPhe-DNal(2′)-NH2]", "cAMP AlphaScreen, HEK293 cells stably expressing the receptor: agonist EC50": 500}
    ]},
    {"biological_target": "T1, mouse melanocortin-3 receptor", "assay": "radioligand binding", "units": {"IC50": "nM"}, "values": [
      {"binder": "Ac-FR[dPhe(4-I)][Tic]-NH2", "note": "[compound 22]", "IC50": 2500},
      {"binder": "Ac-RR[dPhe(4-I)][d2Nal]-NH2", "note": "[Ac-Arg-Arg-(pI)DPhe-DNal(2′)-NH2]", "IC50": 440}
    ]},
    {"biological_target": "T2, mouse melanocortin-4 receptor", "assay": "radioligand binding", "units": {"IC50": "nM"}, "values": [
      {"binder": "Ac-HR[dPhe(4-I)][Bta]-NH2", "note": "[compound 11]", "IC50": 275},
      {"binder": "Ac-RR[dPhe(4-I)][Bta]-NH2", "note": "[compound 10]", "IC50": 93},
      {"binder": "B1", "IC50": 83},
      {"binder": "Ac-FR[dPhe(4-I)][Tic]-NH2", "note": "[compound 22]", "IC50": 135},
      {"binder": "B2", "IC50": 13},
      {"binder": "Ac-[d2Nal]R[dPhe(4-I)][Tic]-NH2", "note": "[compound 24]", "IC50": 43},
      {"binder": "Ac-FR[dPhe(4-I)][Bta]-NH2", "note": "[compound 15]", "IC50": 850},
      {"binder": "Ac-RR[dPhe(4-I)][d2Nal]-NH2", "note": "[Ac-Arg-Arg-(pI)DPhe-DNal(2′)-NH2]", "IC50": 220}
    ]}
  ]
}
